From patent US20170355774A1 (Regeneron, published 2017)

Assays:
[1] = molecular target: T1, hGITR.mmh (human); assay: SPR 37C, mAb capture
T1 construct: soluble monomeric construct; also called human (h) GITR.mmh; monomeric human GITR
T1 chain: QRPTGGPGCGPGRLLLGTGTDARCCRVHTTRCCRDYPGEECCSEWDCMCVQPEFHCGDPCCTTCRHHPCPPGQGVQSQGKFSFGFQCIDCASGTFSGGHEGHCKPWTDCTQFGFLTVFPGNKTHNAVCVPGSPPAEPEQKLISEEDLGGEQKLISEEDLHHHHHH

[2] = molecular target: T2, hGITR.mFc (human); assay: SPR 37C, mAb capture
T2 construct: soluble dimeric construct with mouse Fc; also called dimeric human GITR
T2 chain: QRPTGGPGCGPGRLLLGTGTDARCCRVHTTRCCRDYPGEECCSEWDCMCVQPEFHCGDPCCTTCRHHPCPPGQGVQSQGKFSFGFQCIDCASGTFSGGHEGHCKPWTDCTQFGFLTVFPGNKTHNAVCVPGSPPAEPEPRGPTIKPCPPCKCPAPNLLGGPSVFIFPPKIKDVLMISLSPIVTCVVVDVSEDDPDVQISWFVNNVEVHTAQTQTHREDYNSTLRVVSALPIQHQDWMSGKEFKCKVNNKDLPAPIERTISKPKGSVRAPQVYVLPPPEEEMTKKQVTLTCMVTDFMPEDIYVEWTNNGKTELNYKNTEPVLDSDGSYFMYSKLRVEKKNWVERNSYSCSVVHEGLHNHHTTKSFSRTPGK

[3] = molecular target: T3, mfGITR.mmh (Macaca fasicularis); assay: SPR 37C, mAb capture
T3 construct: soluble monomeric construct; also called Macaca fasicularis (mf) GITR.mmh; cynomolgus GITR protein
T3 chain: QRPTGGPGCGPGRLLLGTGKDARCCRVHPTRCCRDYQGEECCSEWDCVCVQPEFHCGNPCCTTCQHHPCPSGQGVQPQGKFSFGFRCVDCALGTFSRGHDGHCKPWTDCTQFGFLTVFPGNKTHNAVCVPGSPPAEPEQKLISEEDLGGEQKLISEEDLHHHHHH

[4] = molecular target: T4, human GITR (amino acids M1-V241, NCBI Accession #NP_004186.1) expressed on cells (human, UniProt Q9Y5U5 26-241); assay: cell-based or functional assay
T4 sequence: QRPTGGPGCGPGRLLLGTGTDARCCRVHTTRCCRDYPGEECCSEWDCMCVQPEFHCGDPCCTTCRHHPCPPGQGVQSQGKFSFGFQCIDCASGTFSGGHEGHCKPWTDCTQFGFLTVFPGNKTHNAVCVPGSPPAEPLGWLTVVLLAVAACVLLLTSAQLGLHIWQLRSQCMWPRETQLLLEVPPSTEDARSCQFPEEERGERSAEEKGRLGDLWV

[5] = molecular target: T4, human GITR (amino acids M1-V241, NCBI …); assay: cell-based or functional assay; remark: listed apart in the source
[6] = molecular target: T4, human GITR (amino acids M1-V241, NCBI …); assay: cell-based or functional assay; remark: listed apart in the source
[7] = molecular target: T4, human GITR (amino acids M1-V241, NCBI …); assay: cell-based or functional assay; remark: listed apart in the source
[8] = molecular target: T4, human GITR (amino acids M1-V241, NCBI …); assay: cell-based or functional assay; remark: listed apart in the source
[9] = molecular target: T4, human GITR (amino acids M1-V241, NCBI …); assay: cell-based or functional assay; remark: listed apart in the source
[10] = molecular target: T4, human GITR (amino acids M1-V241, NCBI …); assay: cell-based or functional assay; remark: listed apart in the source
[11] = molecular target: T4, human GITR (amino acids M1-V241, NCBI …); assay: ECL cell binding, hGITR/HEK293-D9
Outline: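 Cells blocked with 2% BSA, then antibody dilutions from 1.7 pM to 100 nM added 1 h at RT. Bound antibody detected with SULFO-TAG anti-human kappa antibody, electrochemiluminescence read, RLU fitted by four-parameter logistic; signal at 100 nM on hGITR cells versus parental cells also recorded.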

B1: H4H14536P2 (antibody, human IgG4, V domains shown)
VH: QVQLQESGPGLVKPSETLSLTCIVSGGSISGYFWNWIRQPPGKGLEWIGYIYYSGTTIYNPSLKSRFTISLDTSKNQFSLKLTSVTAADTAVYYCARESYNPSPRYFDHWGQGTLVTVSS
VL: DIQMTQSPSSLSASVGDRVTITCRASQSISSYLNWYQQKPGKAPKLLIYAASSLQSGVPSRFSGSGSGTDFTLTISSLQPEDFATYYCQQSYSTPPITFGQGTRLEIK
notes: human IgG4 (H4H)
- Kd [1]: 23 nM
- koff [1]: 0.00976 s⁻¹
- kon [1]: 424000 M⁻¹ s⁻¹
- t½ [1]: 1.2 min
- Kd [2]: 0.173 nM
- koff [2]: 0.000219 s⁻¹
- kon [2]: 1.26e+06 M⁻¹ s⁻¹
- t½ [2]: 52.7 min
- Kd [3]: 142 nM
- koff [3]: 0.0147 s⁻¹
- kon [3]: 104000 M⁻¹ s⁻¹
- t½ [3]: 0.8 min
- % Activation, NF-kB-Luc, non-anchored [4]: 20%
- % Blocking, NF-kB-Luc, non-anchored [4]: 90%
- EC50, hGITR activation, NF-kB-Luc, non-anchored [4]: 1.1 nM
- IC50, blocking of hGITRL stimulation, NF-kB-Luc, non-anchored [4]: 2 nM
- EC50, hGITR activation, NF-kB-Luc, FcgR anchored [5]: 0.01 nM
- Fold Activation over basal signal, NF-kB-Luc, FcgR anchored [5]: 5 fold
- IC50, blocking of hGITRL stimulation, NF-kB-Luc, FcgR anchored [5]: 0.2 nM
- fold activation, T-cell proliferation, plate-bound Ab 10.6 nM, donor 1 [6]: 3 fold
- fold activation, T-cell proliferation, plate-bound Ab 10.6 nM, donor 2 [6]: 24 fold
- fold activation, T-cell proliferation, plate-bound Ab 10.6 nM, donor 3 [6]: 24 fold
- fold activation, T-cell proliferation, plate-bound Ab 10.6 nM, donor 4 [6]: 25 fold
- fold activation, T-cell proliferation, plate-bound Ab 10.6 nM, donor 5 [6]: 24 fold
- fold activation, T-cell proliferation, plate-bound Ab 10.6 nM, donor 6 [6]: 47 fold
- fold activation, T-cell proliferation, plate-bound Ab 10.6 nM, donor 7 [6]: 26 fold
- fold activation, T-cell proliferation, plate-bound Ab 10.6 nM, donor 8 [6]: 16 fold
- fold activation, T-cell proliferation, plate-bound Ab 10.6 nM, mean [6]: 23 fold
- fold activation, T-cell proliferation, 33 nM, FcgR anchored, donor 1 [7]: 1.3 fold
- fold activation, T-cell proliferation, 33 nM, FcgR anchored, donor 2 [7]: 6.3 fold
- fold activation, T-cell proliferation, 33 nM, FcgR anchored, donor 3 [7]: 1.5 fold
- fold activation, T-cell proliferation, 33 nM, FcgR anchored, donor 4 [7]: 2.7 fold
- fold activation, T-cell proliferation, 33 nM, FcgR anchored, donor 5 [7]: 15.7 fold
- fold activation, T-cell proliferation, 33 nM, FcgR anchored, mean [7]: 5.5 fold
- EC50, T-cell proliferation, FcgR anchored, donor 1 [8]: 1.2 nM
- EC50, T-cell proliferation, FcgR anchored, donor 2 [8]: 0.5 nM
- EC50, T-cell proliferation, FcgR anchored, donor 3 [8]: 1.3 nM
- EC50, T-cell proliferation, FcgR anchored, donor 4 [8]: 11.2 nM
- EC50, T-cell proliferation, FcgR anchored, donor 5 [8]: 1.6 nM
- EC50, T-cell proliferation, FcgR anchored, mean [8]: 3.2 nM
- fold activation, T-cell proliferation, 22 nM, non-anchored, donor 1 [9]: 6.2 fold
- fold activation, T-cell proliferation, 22 nM, non-anchored, donor 2 [9]: 4.2 fold
- fold activation, T-cell proliferation, 22 nM, non-anchored, donor 3 [9]: 10.1 fold
- fold activation, T-cell proliferation, 22 nM, non-anchored, donor 4 [9]: 23.4 fold
- fold activation, T-cell proliferation, 22 nM, non-anchored, mean [9]: 11 fold
- EC50, T-cell proliferation, non-anchored, average [10]: 8.3 nM
- EC50, T-cell proliferation, non-anchored, donor 1 [10]: 12.2 nM
- EC50, T-cell proliferation, non-anchored, donor 2 [10]: 6.4 nM
- EC50, T-cell proliferation, non-anchored, donor 3 [10]: 9 nM
- EC50, T-cell proliferation, non-anchored, donor 4 [10]: 5.7 nM
- Average Signal (RLU) at 100 nM [11]: 8960 RLU
- EC50 [11]: 0.36 nM
